Measured values published in patent US20170247475A1 (Boehringer Ingelheim, published 2017).
Where two headings read alike, the source gives them in different places.

Legend:
[1] = biological target: T1, hAng2; experiment: cell-based or functional assay
T1 chain: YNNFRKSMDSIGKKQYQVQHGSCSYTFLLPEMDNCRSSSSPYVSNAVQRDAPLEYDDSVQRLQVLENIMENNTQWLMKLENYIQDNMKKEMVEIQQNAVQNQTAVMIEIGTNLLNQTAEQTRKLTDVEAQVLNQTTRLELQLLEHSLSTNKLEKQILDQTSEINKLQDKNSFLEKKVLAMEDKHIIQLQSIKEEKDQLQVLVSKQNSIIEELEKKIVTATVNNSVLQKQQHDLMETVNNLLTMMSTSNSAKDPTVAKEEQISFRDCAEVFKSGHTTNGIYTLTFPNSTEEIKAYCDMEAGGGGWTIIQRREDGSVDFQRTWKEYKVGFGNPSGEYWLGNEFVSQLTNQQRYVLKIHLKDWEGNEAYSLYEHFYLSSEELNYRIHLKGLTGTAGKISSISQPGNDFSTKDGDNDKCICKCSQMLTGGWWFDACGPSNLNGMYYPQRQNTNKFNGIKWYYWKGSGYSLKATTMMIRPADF

[2] = biological target: T1, hAng2; experiment: competition ELISA, blocking of hAng2 binding to hTie2-Fc
[3] = biological target: T2, mAng2; experiment: competition ELISA, blocking of mAng2 binding to mTie2-Fc
T2 construct: may be the same protein as m22 (mouse Ang2-FLD); also called mouse Ang2
T2 chain: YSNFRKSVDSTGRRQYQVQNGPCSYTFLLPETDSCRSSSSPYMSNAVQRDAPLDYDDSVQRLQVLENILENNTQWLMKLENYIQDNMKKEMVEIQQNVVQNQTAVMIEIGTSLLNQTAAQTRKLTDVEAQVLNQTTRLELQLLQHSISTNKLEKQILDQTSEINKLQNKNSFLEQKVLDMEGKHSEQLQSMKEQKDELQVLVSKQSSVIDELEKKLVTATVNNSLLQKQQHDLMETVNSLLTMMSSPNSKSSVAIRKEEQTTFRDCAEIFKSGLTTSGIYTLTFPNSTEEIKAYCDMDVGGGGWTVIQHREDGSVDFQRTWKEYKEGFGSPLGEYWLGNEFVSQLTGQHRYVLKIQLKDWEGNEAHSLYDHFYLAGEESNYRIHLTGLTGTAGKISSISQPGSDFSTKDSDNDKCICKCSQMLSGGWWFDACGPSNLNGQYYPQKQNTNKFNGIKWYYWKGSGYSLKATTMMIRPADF

[4] = biological target: T3, cAng2 (cynomolgus monkey); experiment: competition ELISA, blocking of cAng2 binding to cTie2-Fc
T3 construct: may be the same protein as m21 (cyno Ang2-FLD); also called cyno Ang2

[5] = biological target: T1, hAng2; experiment: cell-based or functional assay
[6] = biological target: T3, cAng2; experiment: competition ELISA, blocking of cAng2 binding to cTie2-Fc; remark: listed apart in the source
[7] = biological target: T1, hAng2; experiment: competition ELISA, blocking of hAng2 binding to hTie2-Fc
[8] = biological target: T2, mAng2; experiment: competition ELISA, blocking of mAng2 binding to mTie2-Fc
[9] = biological target: T4, mAng2; experiment: competition ELISA, blocking of mAng2 binding to mTie2
T4 construct: also called mouse Ang2
T4 chain: T2 chain

[10] = biological target: T5, hAng2; experiment: competition ELISA, blocking of hAng2 binding to hTie2
T5 construct: also called human Ang2
T5 chain: T1 chain

[11] = biological target: T6, cAng2 (cynomolgus monkey); experiment: competition ELISA, blocking of cAng2 binding to cTie2
T6 construct: also called cyno Ang2

[12] = biological target: T4, mAng2; experiment: competition ELISA, blocking of mAng2 binding to mTie2
[13] = biological target: T5, hAng2; experiment: competition ELISA, blocking of hAng2 binding to hTie2
[14] = biological target: T6, cAng2; experiment: competition ELISA, blocking of cAng2 binding to cTie2; remark: listed apart in the source

B1: 00956 (VHH)
VHH: EVQLVESGGGLVQPGGSLRLSCAASGFTLDDYAIGWFRQAPGKEREGVSAIRSSGGSTYYADSVKGRFTISSDNSKNTVYLQMNSLRPEDTAVYYCAAVPAGRLRFGEQWYPLYEYDAWGQGTLVTVSS
- IC50 (read off the curve), hAng2 mediated HUVEC survival [1]: ~6 nM
- IC50 (read off the curve) [2]: ~1 nM
- IC50 (read off the curve) [3]: ~3 nM
- IC50 (read off the curve) [4]: ~2 nM

B2: 00921 (VHH)
VHH: EVQLVESGGGLVQPGGSLRLSCAASGFTFDDYALGWFRQAPGKEREGVSCIRCSGGSTYYADSVKGRFTISSDNSKNTVYLQMNSLRPEDTAVYYCAASIVPRSKLEPYEYDAWGQGTLVTVSS
- IC50 (read off the curve), hAng2 mediated HUVEC survival [5]: ~30 nM
- IC50 (read off the curve) [6]: ~50 nM
- IC50 (read off the curve) [7]: ~20 nM
- IC50 (read off the curve) [8]: ~30 nM

B3: ANGBII00003 (VHH)
bivalent VHH: EVQLVESGGGLVQVGDSLRLSCAASGRTFSTYLMVGWFRQAPGKEREFAAGIWSSGDTAYADSVRGRFTISRDNAKNTVYLQMNSLKTEDTAVYYCAGSYDGNYYIPGFYKDWGQGTLVTVSSGGGGSGGGSEVQLVESGGGLVQVGDSLRLSCAASGRTFSTYLMVGWFRQAPGKEREFAAGIWSSGDTAYADSVRGRFTISRDNAKNTVYLQMNSLKTEDTAVYYCAGSYDGNYYIPGFYKDWGQGTLVTVSS
notes: homodimeric anti-Ang2 VHH; also called 11B07-9gs-11B07
- IC50 (read off the curve) [9]: ~0.04 nM
- IC50 (read off the curve) [10]: ~0.03 nM
- IC50 (read off the curve) [11]: ~0.03 nM

B4: ANGBII00004 (VHH)
bivalent VHH: EVQLVESGGGLVQAGGSLRLSCAASGFTLDDYAIGWFRQAPGKEREGVSSIRDNDGSTYYADSVKGRFTISSDNDKNTVYLQMNSLKPEDTAVYYCAAVPAGRLRFGEQWYPLYEYDAWGQGTLVTVSSGGGGSGGGSEVQLVESGGGLVQAGGSLRLSCAASGFTLDDYAIGWFRQAPGKEREGVSSIRDNDGSTYYADSVKGRFTISSDNDKNTVYLQMNSLKPEDTAVYYCAAVPAGRLRFGEQWYPLYEYDAWGQGTLVTVSS
notes: homodimeric anti-Ang2 VHH; also called 00027-9gs-00027
- IC50 (read off the curve) [12]: ~0.03 nM
- IC50 (read off the curve) [13]: ~0.01 nM
- IC50 (read off the curve) [14]: ~0.04 nM
